From patent JP2024028198A (dated 2024)
Residue numbers refer to the chain shown, from its start. One block for each binder: values may come before it.

Target: ヒトPAD4 (human, UniProt Q9UM07 1-663, limits assumed)
Experiment: cell-based or functional assay

Chain of ヒトPAD4 (Q9UM07 whole entry): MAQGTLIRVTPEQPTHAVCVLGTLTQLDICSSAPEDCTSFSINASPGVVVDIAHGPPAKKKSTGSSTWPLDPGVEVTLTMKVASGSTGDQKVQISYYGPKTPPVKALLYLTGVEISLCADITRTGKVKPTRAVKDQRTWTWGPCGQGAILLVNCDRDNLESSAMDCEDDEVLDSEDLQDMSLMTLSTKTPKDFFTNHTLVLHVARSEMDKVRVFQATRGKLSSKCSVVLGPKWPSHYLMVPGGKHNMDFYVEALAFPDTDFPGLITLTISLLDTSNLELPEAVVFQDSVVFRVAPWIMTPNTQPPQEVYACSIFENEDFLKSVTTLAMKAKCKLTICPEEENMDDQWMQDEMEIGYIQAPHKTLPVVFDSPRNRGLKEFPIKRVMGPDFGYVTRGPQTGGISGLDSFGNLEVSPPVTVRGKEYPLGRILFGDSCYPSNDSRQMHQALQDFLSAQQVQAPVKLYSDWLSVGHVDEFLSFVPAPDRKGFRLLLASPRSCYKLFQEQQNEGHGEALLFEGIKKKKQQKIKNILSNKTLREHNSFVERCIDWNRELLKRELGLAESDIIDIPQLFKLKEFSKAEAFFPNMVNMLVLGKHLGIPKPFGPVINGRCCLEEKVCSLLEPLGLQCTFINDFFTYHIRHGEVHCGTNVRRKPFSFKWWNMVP

ヒトPAD4酵素阻害活性 IC50 (BAEE citrullination, colorimetric): 9.6 nM
B1: 抗PAD4抗体Lib2(4R)-1-47 (antibody, V domains shown)
VH: EVQLLESGGGLVQPGGSLRLSCAASGFTFSTYAMGWVRQAPGKGLEFVAAIRNDGSWTGYGTPYKTRFTISRDNSKNTLYLQMNSLRAEDTAVYYCAKYTGSSGGSIGAWGQGTLVTVSS
VL: SYELTQPPSVSVSPGQTARITCSGGNRNYYYGWYQQKPGQAPVTVIYANDKRPSGIPERFSGSNSGSTTTLTISGVQAEDEADYYCGTATTGKYVFGGGTKLTVLG

ヒトPAD4酵素阻害活性 IC50 (BAEE citrullination, colorimetric): 12.2 nM
B2: 抗PAD4抗体2-1-47 (antibody, human IgG1, lambda, V domains shown)
VH: B1 VH with N84S
VL: B1 VL

ヒトPAD4酵素阻害活性 IC50 (BAEE citrullination, colorimetric): 15.3 nM
B3: 抗PAD4抗体3-2-37 (antibody, human IgG1, lambda, V domains shown)
VH: B1 VH with Y60I, T62Y, P63N, Y64Q, T66S, N84S, A97G
VL: B1 VL with T90L

ヒトPAD4酵素阻害活性 IC50 (BAEE citrullination, colorimetric): 8.3 nM
B4: 抗PAD4抗体Lib2(5R)-2-25 (antibody, V domains shown)
VH: B1 VH with G61P, T62P, Y64L, T66G
VL: B1 VL with T90Y

ヒトPAD4酵素阻害活性 IC50 (BAEE citrullination, colorimetric): 20.3 nM
B5: ヒト化抗PAD4抗体G8ss (antibody, human IgG1, lambda, V domains shown)
VH: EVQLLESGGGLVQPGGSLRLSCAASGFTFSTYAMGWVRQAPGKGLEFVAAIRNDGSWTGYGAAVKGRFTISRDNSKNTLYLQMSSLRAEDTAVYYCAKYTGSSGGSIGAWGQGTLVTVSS
VL: B1 VL with T90D

ヒトPAD4酵素阻害活性 IC50 (BAEE citrullination, colorimetric): 7.6 nM
B6: 抗PAD4抗体4-2-25 (antibody, human IgG1, lambda, V domains shown)
VH: B1 VH with G61P, T62P, Y64L, T66G, N84S
VL: B1 VL with T90Y

ヒトPAD4酵素阻害活性 IC50 (BAEE citrullination, colorimetric): 8.7 nM
B7: 抗PAD4抗体Lib1(6R)-1-39 (antibody, V domains shown)
VH: B1 VH with Y60T, G61S, T62V, P63N, Y64A
VL: B1 VL

ヒトPAD4酵素阻害活性 IC50 (BAEE citrullination, colorimetric): 21.6 nM
B8: ヒト化抗PAD4抗体G8 (antibody, human IgG1, lambda, V domains shown)
VH: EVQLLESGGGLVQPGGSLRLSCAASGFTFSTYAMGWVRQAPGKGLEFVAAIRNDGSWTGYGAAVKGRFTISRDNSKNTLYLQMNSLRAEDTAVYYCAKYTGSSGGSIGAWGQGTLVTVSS
VL: B1 VL with T90D

ヒトPAD4酵素阻害活性 IC50 (BAEE citrullination, colorimetric): 8.8 nM
B9: 抗PAD4抗体3-1-39 (antibody, human IgG1, lambda, V domains shown)
VH: B1 VH with Y60T, G61S, T62V, P63N, Y64A, N84S
VL: B1 VL

ヒトPAD4酵素阻害活性 IC50 (BAEE citrullination, colorimetric): 13.4 nM
B10: 抗PAD4抗体Lib1(6R)-2-37 (antibody, V domains shown)
VH: B1 VH with Y60I, T62Y, P63N, Y64Q, T66S, A97G
VL: B1 VL with T90L
